According to the supplement of paper PMC9112550, “Optimization of the antimicrobial peptide Bac7 by deep mutational scanning” (BMC Biology, 2022):

Tested on: Escherichia coli TOP10
Assay: shrunken log2 fold change of peptide-encoding DNA abundance (4.5 h post-induction vs induction); higher = less antimicrobial activity (less host growth inhibition)
Details: time post-induction: 4.5 h; library: site-saturation at positions 5, 18, 19, 20
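Also: peptides expressed intracellularly from a pBAD plasmid library in pooled LB shake-flask culture, induced with 0.3% L-arabinose, DNA abundance read by NGS, three biological replicates, DESeq2 with apeglm shrinkage.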

Sequence | shrunken log2 fold change
RRIRCRPPRLPRPRPRPIAHPRP | -0.0801
RRIRPRPPRLPRPRPRPSIPPRP | -0.436
RRIRERPPRLPRPRPRPMWDPRP | -0.0758
RRIRGRPPRLPRPRPRPRIPPRP | 0.424
RRIRYRPPRLPRPRPRPTSRPRP | -0.0257
RRIRDRPPRLPRPRPRPPHPPRP | 0.235
RRIRERPPRLPRPRPRPCQPPRP | 0.0208
RRIRHRPPRLPRPRPRPYCKPRP | -1.02
RRIRFRPPRLPRPRPRPKVVPRP | 0.291
RRIRRRPPRLPRPRPRPAAEPRP | 0.845
RRIRMRPPRLPRPRPRPNAMPRP | 0.16
RRIRVRPPRLPRPRPRPKAHPRP | -0.00647
RRIRNRPPRLPRPRPRPQRHPRP | -0.0566
RRIRERPPRLPRPRPRPRNGPRP | 0.0197
RRIRMRPPRLPRPRPRPLDKPRP | 1.96
RRIRNRPPRLPRPRPRPDGTPRP | -0.128
RRIRFRPPRLPRPRPRPVQPPRP | 0.246
RRIRHRPPRLPRPRPRPHQGPRP | -0.00197
RRIRCRPPRLPRPRPRPTFNPRP | -0.525
RRIRKRPPRLPRPRPRPLGPPRP | 0.749
RRIRDRPPRLPRPRPRPVMHPRP | -0.112
RRIRDRPPRLPRPRPRPQAAPRP | 0.0147
RRIRGRPPRLPRPRPRPWPQPRP | 0.498
RRIRWRPPRLPRPRPRPRLNPRP | 0.545
RRIRARPPRLPRPRPRPVMWPRP | 0.555

Sequence | shrunken log2 fold change
RRIRMRPPRLPRPRPRPQPLPRP | 0.224
RRIRDRPPRLPRPRPRPDQQPRP | 0.0408
RRIRYRPPRLPRPRPRPCHLPRP | -0.019
RRIRCRPPRLPRPRPRPVVFPRP | -0.123
RRIRHRPPRLPRPRPRPRCIPRP | -0.0991
RRIRARPPRLPRPRPRPKSSPRP | 0.188
RRIRQRPPRLPRPRPRPQAIPRP | 0.0712
RRIRHRPPRLPRPRPRPGDAPRP | 0.0297
RRIRCRPPRLPRPRPRPFDPPRP | -0.0744
RRIRWRPPRLPRPRPRPMVCPRP | 0.199
RRIRQRPPRLPRPRPRPSCSPRP | -0.111
RRIRQRPPRLPRPRPRPLIQPRP | -0.228
RRIRHRPPRLPRPRPRPMAHPRP | 0.0179
RRIRTRPPRLPRPRPRPHGFPRP | -0.0139
RRIRGRPPRLPRPRPRPITQPRP | -0.0614
RRIRERPPRLPRPRPRPNMMPRP | -0.612
RRIRYRPPRLPRPRPRPQHEPRP | 0.0438
RRIRRRPPRLPRPRPRPRKWPRP | 0.319
RRIRVRPPRLPRPRPRPVSTPRP | -0.145
RRIRLRPPRLPRPRPRPQDWPRP | -0.104
RRIRARPPRLPRPRPRPYWFPRP | -0.775
RRIRWRPPRLPRPRPRPFITPRP | -0.167
RRIRHRPPRLPRPRPRPTKDPRP | -0.154
RRIRKRPPRLPRPRPRPAQQPRP | 0.344
RRIRDRPPRLPRPRPRPWYHPRP | -0.0258

Sequence | shrunken log2 fold change
RRIRGRPPRLPRPRPRPSKMPRP | 0.0491
RRIRERPPRLPRPRPRPFNPPRP | -0.442
RRIRKRPPRLPRPRPRPPCNPRP | 0.189
RRIRNRPPRLPRPRPRPHKGPRP | -0.014
RRIRTRPPRLPRPRPRPCKEPRP | -0.00136
RRIRNRPPRLPRPRPRPPPDPRP | 0.794
RRIRNRPPRLPRPRPRPQMNPRP | -0.614
RRIRVRPPRLPRPRPRPTYCPRP | -0.327
RRIRKRPPRLPRPRPRPQWMPRP | -0.307
RRIRVRPPRLPRPRPRPKDCPRP | -0.107
RRIRFRPPRLPRPRPRPSIPPRP | -0.602
RRIRWRPPRLPRPRPRPAPEPRP | 0.603
RRIRTRPPRLPRPRPRPAPYPRP | 0.151
RRIRWRPPRLPRPRPRPKLEPRP | 0.808
RRIRGRPPRLPRPRPRPAWIPRP | 0.347
RRIRTRPPRLPRPRPRPCRMPRP | -0.261
RRIRQRPPRLPRPRPRPHYCPRP | -0.0397
RRIRDRPPRLPRPRPRPLFPPRP | -0.116
RRIRKRPPRLPRPRPRPDLTPRP | -0.000918
RRIRIRPPRLPRPRPRPKMHPRP | -0.299
RRIRFRPPRLPRPRPRPIRQPRP | -0.297
RRIRCRPPRLPRPRPRPRRRPRP | 0.496
RRIRTRPPRLPRPRPRPAMDPRP | -0.708
RRIRVRPPRLPRPRPRPIPCPRP | -0.0881
RRIRCRPPRLPRPRPRPQNHPRP | -0.612

Sequence | shrunken log2 fold change
RRIRCRPPRLPRPRPRPNWEPRP | 0.0349
RRIRSRPPRLPRPRPRPPHGPRP | 0.1
RRIRYRPPRLPRPRPRPPPEPRP | 0.456
RRIRVRPPRLPRPRPRPPHTPRP | 0.0516
RRIRIRPPRLPRPRPRPRDQPRP | -0.0489
RRIRTRPPRLPRPRPRPHITPRP | -0.625
RRIRLRPPRLPRPRPRPLTMPRP | -0.427
RRIRMRPPRLPRPRPRPVTHPRP | 0.0493
RRIRHRPPRLPRPRPRPCFWPRP | -0.0857
RRIRKRPPRLPRPRPRPQRSPRP | 0.392
RRIRYRPPRLPRPRPRPVWIPRP | -1.23
RRIRQRPPRLPRPRPRPSVIPRP | -0.656
RRIRARPPRLPRPRPRPPYTPRP | 0.16
RRIRNRPPRLPRPRPRPCICPRP | -0.33
RRIRDRPPRLPRPRPRPMIFPRP | 0.0749
RRIRTRPPRLPRPRPRPESLPRP | -0.00987
RRIRKRPPRLPRPRPRPFDEPRP | 0.0269
RRIRCRPPRLPRPRPRPYDYPRP | -0.27
RRIRERPPRLPRPRPRPKFDPRP | 0.154
RRIRHRPPRLPRPRPRPRCFPRP | -0.143
RRIRARPPRLPRPRPRPNYMPRP | -0.2
RRIRERPPRLPRPRPRPANVPRP | -0.0342
RRIRWRPPRLPRPRPRPVVSPRP | 0.0155
RRIRFRPPRLPRPRPRPDYTPRP | -0.02
RRIRQRPPRLPRPRPRPYMMPRP | 0.00408

Sequence | shrunken log2 fold change
RRIRIRPPRLPRPRPRPGGAPRP | 0.288
RRIRCRPPRLPRPRPRPWPYPRP | -0.115
RRIRRRPPRLPRPRPRPIPWPRP | 0.312
RRIRNRPPRLPRPRPRPMGFPRP | -0.0516
RRIRNRPPRLPRPRPRPWSPPRP | -0.245
RRIRRRPPRLPRPRPRPSCNPRP | -0.112
RRIRKRPPRLPRPRPRPSIVPRP | -0.059
RRIRMRPPRLPRPRPRPQIHPRP | 0.149
RRIRLRPPRLPRPRPRPGRSPRP | 0.326
RRIRFRPPRLPRPRPRPGTAPRP | 0.0678
RRIRHRPPRLPRPRPRPEYYPRP | -0.241
RRIRDRPPRLPRPRPRPLWGPRP | 0.294
RRIRKRPPRLPRPRPRPWCAPRP | 0.113
RRIRDRPPRLPRPRPRPHILPRP | 0.0348
RRIRSRPPRLPRPRPRPHPPPRP | 0.436
RRIRMRPPRLPRPRPRPEVGPRP | 2.56
RRIRIRPPRLPRPRPRPEHFPRP | -0.0163
RRIRFRPPRLPRPRPRPWGYPRP | -0.164
RRIRERPPRLPRPRPRPFCCPRP | -0.0198
RRIRTRPPRLPRPRPRPTATPRP | 0.286
RRIRIRPPRLPRPRPRPDKCPRP | -0.0188
RRIRSRPPRLPRPRPRPGDWPRP | 0.223
RRIRGRPPRLPRPRPRPVGWPRP | 1.26
RRIRMRPPRLPRPRPRPCNYPRP | 0.0171
RRIRHRPPRLPRPRPRPSAHPRP | -0.139
